Measurements taken from patent publication US20150010574A1.

Assays:
Test in all cases: cell-based or functional assay
human IGF-2 (human) = human IGF-2 (human) (UniProt P01344)
human IGF-1 (human) = human IGF-1 (human) (UniProt P05019)
human IGF-1R (human) = human IGF-1R (human) (UniProt P08069)
Chain of human IGF-1R (human) (P08069 31-1367): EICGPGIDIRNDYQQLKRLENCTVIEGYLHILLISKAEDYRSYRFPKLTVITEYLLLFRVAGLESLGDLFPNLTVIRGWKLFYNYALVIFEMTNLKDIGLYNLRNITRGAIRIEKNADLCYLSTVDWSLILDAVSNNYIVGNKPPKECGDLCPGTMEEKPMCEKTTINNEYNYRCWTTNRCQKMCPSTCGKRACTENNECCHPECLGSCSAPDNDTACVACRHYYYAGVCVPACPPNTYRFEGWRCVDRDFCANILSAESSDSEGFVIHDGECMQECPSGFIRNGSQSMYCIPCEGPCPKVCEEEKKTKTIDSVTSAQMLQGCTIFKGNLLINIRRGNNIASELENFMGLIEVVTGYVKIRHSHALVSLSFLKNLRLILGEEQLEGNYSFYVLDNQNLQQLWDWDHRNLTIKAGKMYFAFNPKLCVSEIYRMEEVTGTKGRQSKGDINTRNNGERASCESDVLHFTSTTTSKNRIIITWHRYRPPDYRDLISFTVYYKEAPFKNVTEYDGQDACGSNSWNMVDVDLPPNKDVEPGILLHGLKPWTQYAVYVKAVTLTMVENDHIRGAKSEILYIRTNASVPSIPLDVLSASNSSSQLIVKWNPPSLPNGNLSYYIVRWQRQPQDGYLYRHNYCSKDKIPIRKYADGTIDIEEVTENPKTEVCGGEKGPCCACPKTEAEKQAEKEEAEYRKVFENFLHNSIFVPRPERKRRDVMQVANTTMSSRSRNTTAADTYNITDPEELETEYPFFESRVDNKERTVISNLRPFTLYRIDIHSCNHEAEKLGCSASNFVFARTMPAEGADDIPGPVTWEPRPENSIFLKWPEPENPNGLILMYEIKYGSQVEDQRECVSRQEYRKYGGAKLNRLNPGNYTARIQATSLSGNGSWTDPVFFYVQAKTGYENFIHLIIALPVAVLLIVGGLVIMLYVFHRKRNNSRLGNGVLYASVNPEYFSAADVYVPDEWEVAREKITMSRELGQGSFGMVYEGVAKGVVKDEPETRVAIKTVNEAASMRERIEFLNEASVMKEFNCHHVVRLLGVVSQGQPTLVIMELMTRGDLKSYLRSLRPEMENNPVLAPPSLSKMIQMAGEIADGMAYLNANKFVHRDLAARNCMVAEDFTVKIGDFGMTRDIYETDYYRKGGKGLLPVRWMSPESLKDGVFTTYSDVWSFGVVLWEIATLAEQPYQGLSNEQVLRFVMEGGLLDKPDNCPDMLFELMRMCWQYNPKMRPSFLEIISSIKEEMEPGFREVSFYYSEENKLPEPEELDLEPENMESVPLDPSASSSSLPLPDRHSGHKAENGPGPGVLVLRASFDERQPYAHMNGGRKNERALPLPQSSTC

Chain of human IGF-2 (human) (P01344 25-91 limits assumed): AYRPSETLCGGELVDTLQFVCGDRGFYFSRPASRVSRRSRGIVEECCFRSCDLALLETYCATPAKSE
Chain of human IGF-1 (human) (P05019 49-118): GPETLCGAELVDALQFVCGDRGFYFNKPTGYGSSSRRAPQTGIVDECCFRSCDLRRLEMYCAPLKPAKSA

% Remaining Phosphorylation at 15 µg/mL (100 nM) Inhibitor; IGF-2 (100 ng/mL) induced IGF-1R phosphorylation (human IGF-2 (human)) [%] | % Remaining Phosphorylation at 15 µg/mL (100 nM) Inhibitor; IGF-2 (100 ng/mL) induced IR-A phosphorylation (human IGF-2 (human)) [%] | IC50 of IGF-2 (100 ng/mL) induced IGF-1R phosphorylation, cell based ELISA (human IGF-2 (human)) [µg/mL] | IC50 of IGF-2 (100 ng/mL) induced IR-A phosphorylation, cell based ELISA (human IGF-2 (human)) [µg/mL] | % Remaining Phosphorylation at 15 µg/mL (100 nM) Inhibitor; IGF-1 (20 ng/mL) induced IGF-1R phosphorylation (human IGF-1 (human)) [%] | % Remaining Phosphorylation at 15 µg/mL (100 nM) Inhibitor; IGF-1 (20 ng/mL) induced IGF-1R phosphorylation (human IGF-1R (human)) [%] | % Remaining Phosphorylation at 15 µg/mL (100 nM) Inhibitor; IGF-2 (100 ng/mL) induced IGF-1R phosphorylation (human IGF-1R (human)) [%] | % Remaining Phosphorylation at 15 µg/mL (100 nM) Inhibitor; human serum (20%) induced IGF-1R phosphorylation (human IGF-1R (human)) [%] | IC50 of IGF-1 (20 ng/mL) induced IGF-1R phosphorylation, cell based ELISA (human IGF-1R (human)) [µg/mL] | IC50 of IGF-2 (100 ng/mL) induced IGF-1R phosphorylation, cell based ELISA (human IGF-1R (human)) [µg/mL] | IC50 of human serum (20%) induced IGF-1R phosphorylation, cell based ELISA (human IGF-1R (human)) [µg/mL] | Substance
108 | 109 | > 15 | > 15 | 108 |  |  |  |  |  |  | Control IgG (antibody)
 |  |  |  |  | 35 | 76 | 120 | 1.16 | > 15 | > 15 | IGF-1R antibody αIR-3 (Calbiochem, No. GR11L)
